Data as given in the DeepSol protein solubility set.

Assay: soluble on expression in E. coli; label from the status in PepcDB or PDB records

Sequence	soluble on expression in E. coli
MWDKRELTDLAIISAIGIDRTNDSNYVLHLQIINPGNVAGGLQGGGAGDRPPVSVYSIEGNNITEALRKASMKVSRRLYFAHTNLVVINEKLAKEEGLDFVLDNLDRDTEFRTTATFVVAHKTKAENIVKILTPIDKIPSNKVNKTLDFTEAQYGRVVKINIQDVLKTLAANTMAPVIPGYMMIGDDKKGVSMENTQATDPKAILQADGLAVFDKAGYLKYWLEDDESVGAVWLMNKIQHTFINADWGKTKDAVSLQVTHQDTKLVPKMRNGRPYIHVKVSVEGIIDAVKYPFQLSDPKVLAAIEKALNKELEKEISHTVKKIKKNKIDFIGFGDTIYRKYPEQWEKMKDTWDKEYLPELPIDVKAETYIRRTGLRNNPIKHQFKDDLEHHHHHH	not soluble
MGSDKIHHHHHHMQEIFAVLPETIRQLLKKLPPSIQKDVEEIRIRVHRPLEVIVNHLPHYPEHQGCEYVVTTKDAQFLLNQLSAYSIYAFEEELKRGFITMAGGHRVGLAGKVTLEKGYVKTVRDISSFNIRVAKQKIGTAEPLISHVYQKGWLNTLLIGPPQSGKTTLLRDLARLVSVGWSRKGIPPLKVGIVDERSEIAAAVKGVPQHELGMRVDVLDGCPKAEGMMMMIRSMSPDVLIVDEIGRKEDCVAIQEALHAGVKVMTTAHGYELEEVSKRPAIRELLEIEAFDRCIELERRAKPGVVRRIRNAKAKDVGYVS	not soluble
MNEIMLETKNLCKTFRQQSVVQNISLSVPKYAIYGLLGPNGAGKSTTLKMITGMLIPTSGEIYFDGHKWTRHDLHSIGALIDSPPLYENLTARENLQVRTTVLGLPKSRIDEVLHVVELENTEKKKAKDFSMGMKQRLGIAIALLNHPKFLILDEPMNGLDPFGIQELRKLILSFPGKGITVILSSHILSEVSQIADHVGIISGGVLGYQGKLNKNDDLEDLFVQVAGKYRREA	not soluble
MSANREKKKLETVIKNLEKKIEDQKANAGTKKKEAEQKENLRIEQEKIKKKKEQERLEVPPTPFDDLNSQSAKTLRVEKAIENLKFLGGKSTEFYRRVIGRLGKSGLFKWKMSKREGFYLYHACGLTRRKLRTLKAHFSKSGCSDPFPSVHEIMKIEKIVGAGEQFSVTEHDKDGEEVVAAHLVDVIKYLTDRIHHLIDNGNLVIGTDPIWLTILGDKGSDEFKLCLSIGNAKNPNSCCHLIPLGIFNDDEKSSNISNDLTPIVAQLNSLKELKLKVAGTDVTVPVQQFLGGDMKFQYDVLGHQGASSQFHCMFCNSLKSRLIGGYIRGANVTLRTAASYKENSGKDGNNYARKKSVSIRSRQSTKCDPRSLHTLMGLAQRFGFDYLILWAARIDNPTLTLTKTDIKRSKISKGRLNQLQESLKKLEKVVSGMETVQQVFQNYKNKRVDGRSCGETCHASICLFKDKKMKSAKGYDGRKVECNTCFQAVHAVCGGLWTLDDWELTISIFRENNRHLNELRSDLREKKSVIFSQGLKIDMLESQLSQRQTEFEYRSANAAANSFTRKDHGKLYHCFDIKNQDSTSVSDTMTCRCSMKPCVFYLDSLPAAKTPSLTQLRRIVVLMQQKPSQKIDPKEMLLMTSMHLPFPMQEPSTEYFNAISGCSTSYICVEEMGIGFSFRRHVEKLWMKNLPPATNGTDKAANDLKNQLKVRRNVGKHDRTSRYARKSHN	not soluble
MALVKEVLVVLNRLSPFELQESWDNSGLNVGSENSEFSEIVACLEITLKIALNAPQNALIITHHPLIFKPLKTLNDEIYPGNILKILIQKNVSVISMHTNFDKTHLNKHFAHALLEFDGLVEKGLMLVKENANIEFDALVKKIKSSLGVGSLACVKSSQTIKDLAFVCGSGASMFSSLKAQSCLITGDVKYHDAMIAQSLGISLIDATHYYSERGFALIVAEILHSFNYLVTIENFKNPLQIILEHHHHHH	soluble
MLEAEVVALKDLIEVAGAVVSTLDLDTVLRHILTSAMRFAETPAGSIALYDGYRNDLTLHAHEGLTPEFVKTERWSVQPGGLTEQVLTRGEILFVNDTADTSFFHNPTALNEGIRSLICVPLMMQNRIVGILYLDDFVPRDFDKERMKLLSVLASFAAMAIDNAQLHARTR	not soluble
MGSDKIHHHHHHMRDNTHSLEGVARLLLRSEAVASSRIEGIAPNSDKVAMAILARESDSEIRGFKESATAVARNVAILDTINADLAYKDELVLDDIVAMQTALVHAQFETIHPFPDGNGRVGRAMIHALLQRRGLTDAAVLPVSMVLATLGDRYVDGLTKFREGDVLAWISFFVEAAQVATTKAAELADSVAALEAEWMDKVNHHRTAQEASCHAFGHGAHREVRTGDFIDKHGPRCSRFTHRRWHST	not soluble
MQSWSRVYCSLAKRGHFNRISHGLQGLSAVPLRTYADQPIDADVTVIGSGPGGYVAAIKAAQLGFKTVCIEKNETLGGTCLNVGCIPSKALLNNSHYYHMAHGTDFASRGIEMSEVRLNLDKMMEQKSTAVKALTGGIAHLFKQNKVVHVNGYGKITGKNQVTATKADGGTQVIDTKNILIATGSEVTPFPGITIDEDTIVSSTGALSLKKVPEKMVVIGAGVIGVELGSVWQRLGADVTAVEFLGHVGGVGIDMEISKNFQRILQKQGFKFKLNTKVTGATKKSDGKIDVSIEAASGGKAEVITCDVLLVCIGRRPFTKNLGLEELGIELDPRGRIPVNTRFQTKIPNIYAIGDVVAGPMLAHKAEDEGIICVEGMAGGAVHIDYNCVPSVIYTHPEVAWVGKSEEQLKEEGIEYKVGKFPFAANSRAKTNADTDGMVKILGQKSTDRVLGAHILGPGAGEMVNEAALALEYGASCEDIARVCHAHPTLSEAFREANLAASFGKSINF	not soluble
GNSITSATDEQPHIGNYRLQKTIGKGNFAKVKLARHVLTGREVAVKIIDKTQLNPTSLQKLFREVRIMKILNHPNIVKLFEVIETEKTLYLVMEYASGGEVFDYLVAHGRMKEKEARAKFRQIVSAVQYCHQKYIVHRDLKAENLLLDGDMNIKIADFGFSNEFTVGNKLDTFCGSPPYAAPELFQGKKYDGPEVDVWSLGVILYTLVSGSLPFDGQNLKELRERVLRGKYRIPFYMSTDCENLLKKLLVLNPIKRGSLEQIMKDRWMNVGHEEEELKPYTEPDPDFNDTKRIDIMVTMGFARDEINDALINQKYDEVMATYILLGRK	soluble
MQYINIANRGVKSLSPYQAGKPIEELERELGISNIVKLASNENPFGFPESAKKAIFEQLDKLTRYPDANGFELKQTIAKKFGVQPNQITLGNGSNDLLELFAHTFATEGDEIMYSQYAFIVYPLVTKAINAIVKEIPAKNWGHDLQGFLTALSDKTKLIYIANPNNPTGNFLTSQEIEDFLAEVPENVIVVLDEAYTEFTRSEERVDSFSLLKKYSNLIISRSLSKAYGLAGLRIGYAVSNPEIADLLNRVRQPFNCNSLALTAAVAVMNDDKFVEKVAENNRIEMRRYEDFCQKNQLDYIPSKGNFITIDFKQPAAPIYDALLREGVIVRPIAGYGMPNHLRISIGLPEENDKFFTALSKVLKFA	not soluble
MALTDRLLDAWYKGHPALTLLRPLESLYRRVVDGKRAKFLAGEGDIYRAPVPVIVVGNITIGGTGKTPLILWMIEHCQRKGLRVGVVSRGYGAKPPSLPWRVQPDQSASEAGDEPLLIVQRSGVPLMIDPDRSRAVQALLAAEPLDLILSDDGLQHYRLARDLELVLIDAARGLGNRRCLPAGPLREPVERLSSVDALLYNGATADRDDGYAFTLKPSALINLRSGERQPVSYFPAGQALHAVAGIGNPQRFFNTLEGLHWRPVTHAFADHALYSVQALTFTPALPLVMTEKDAVKCRAFAADDWWYLAVDAVPSDAFVGWFDEQLLRLSPLEHHHHHH	not soluble
MKFTSATGSGSGQGSSSGTNTSAGNPDGLQADKVDQNGQVKTSVQEATSGDNLTNYTNLPPANLTPTADPNALSFTNKNNAQRAQLFLRGLLGSIPVLVNKSGQDDLEHHHHHH	not soluble
MGHHHHHHSHMIEVLTTTDSQKLLHQLNALLEQESRCQPKVCGLRLIESAHDNGLRMTARLRDFEVKDLLSLTQFFGFDTETFSLAVNLLDRFLSKMKVQPKHLGCVGLSCFYLAVKSIEEERNVPLATDLIRISQYRFTVSDLMRMEKIVLEKVCWKVKATTAFQFLQLYYSLLQENLPLERRNSINFERLEAQLKACHCRIIFSKAKPSVLALSIIALEIQAQKCVELTEGIECLQKHSKINGRDLTFWQELVSKCLTEYSSNKCSKPNVQKLKWIVSGRTARQLKHSYYRITHLPTIPEMVP	not soluble
MGGGGGGMEQFNAFKSLLKKHYEKTIGFHDKYIKDINRFVFKNNVLLILLENEFARNSLNDNSEIIHLAESLYEGIKSVNFVNEQDFFFNLAKLEENSRDTLYQNSG	soluble
MTQTQPVTPTPPASFQTQHDPRTRLGATPLPGGAGTRFRLWTSTARTVAVRVNGTEHVMTSLGGGIYELELPVGPGARYLFVLDGVPTPDPYARFLPDGVHGEAEVVDFGTFDWTDADWHGIKLADCVFYEVHVGTFTPEGTYRAAAEKLPYLKELGVTAIQVMPLAAFDGQRGWGYDGAAFYAPYAPYGRPEDLMALVDAAHRLGLGVFLDVVYNHFGPSGNYLSSYAPSYFTDRFSSAWGMGLDYAEPHMRRYVTGNARMWLRDYHFDGLRLDATPYMTDDSETHILTELAQEIHELGGTHLLLAEDHRNLPDLVTVNHLDGIWTDDFHHETRVTLTGEQEGYYAGYRGGAEALAYTIRRGWRYEGQFWAVKGEEHERGHPSDALEAPNFVYCIQNHDQIGNRPLGERLHQSDGVTLHEYRGAAALLLTLPMTPLLFQGQEWAASTPFQFFSDHAGELGQAVSEGRKKEFGGFSGFSGEDVPDPQAEQTFLNSKLNWAEREGGEHARTLRLYRDLLRLRREDPVLHNRQRENLTTGHDGDVLWVRTVTGAGERVLLWNLGQDTRAVAEVKLPFTVPRRLLLHTEGREDLTLGAGEAVLVG	soluble
MFFLQMSGFPGSGKSTVSKYIAKLTGAVIIDHDVLKSALLKSLKVKGIESTIVGGLAYDAEWVLIDSYLEQGHSVILDSPCLYEGMVEKGIELSNKHGVKYKYIECYLNDMEEINRRLQTRKRMISQIEKVESEVGFKKWLNGSKRPSNNEYLIVDSSKPIEQYVEKMMDYMTK	not soluble
MAKAVGIDLGTTNSVIAVLEGGKPVVLENAEGERVTPSVVAFRDGETLVGRMAKRQAVLNPEGTIFEIKRFIGRRFEEVQEEAKRVPYKVVPGPDGGVRVEVKGKLYTPEEISAMILRKLVEDASKKLGEKITKAVITVPAYFNNAQREATANAGRIAGLEVLRIINEPTAAALAYGLDKKGNETVLVFDLGGGTFDVTILEIGEGVFEVKATSGDTHLGGSDMDHAIVNWLAEEFKKEHGVDLKADRQALQRLIEAAEKAKIELSSTLETTISLPFIALDPASKTPLHLEKKLTRAKFEELIQPLLKRLRGPVEQALKDAGLTPAQIDEVILVGGATRVPAVQQVVRELLGKEPNRSVNPDEVVAMGAAIQAGVLMGEVRDVVLLDVTPLSLGVETKGGVMTVLIPRNTTIPTRKCEIFTTAEHNQTAVKSIVFQGKRPMAQDNKSLGRFRLEGIPPMPAGVPQIEVCFDIDANGILHVTAKERSTGREASITIQNTTTLSEEEIQRIIEEAKRHAEEDRRRREHAELKNALDSARVQAERVLQERQGAPEARARLEAAIGKAKELVERDAPDPELKAATEELLKAVEEYEKGAQAASGKGPDDVIDADYKPAD	soluble
MSLEALFNPKSIAVIGASSKPGKIGYAIMKNLIEYGYEGKIYPVNIKGGEMEISGRKFKVYKSILEVPDEVDMAVIVVPAKSVPEVVEECGKKGVKVAPIISSGFGELGEEGKKVEQQLVETARKYGMRILGPNIFGVVYTPAKLNATFGPTDVLPGPLALISQSGALGIALMGWTILEKIGLSAVVSVGNKADIDDADLLEFFKDDENTKAILIYMEGVKDGRRFMEVAKEVSKKKPIIVIKAGRSERGAKAAASHTGSLAGSDTIYSAAFKQTGVLRALTIGEAFDWARALSNLPEPQGENVVIITNGGGIGVMATDAAEEEGLHLYDDLEQLKIFANHMPPFGSYKNPVDLTGMADAKSYEGAIRDALAHPDMHSIIVLYCQTAVLDPRELADVIIREYNESGRKKPLVVAIVGGIEAKQAIDVLNENGIPAYPEPERAVKALSALYKWSKWKAKHK	soluble
